From US20260031189A1 (BIONTECH US, published 2026) come the findings set out here.

In this assay the target is S353-369. The assay can be described thus: FP assay; pair as listed in Table 23.

B1: HLA-DRA*01:01/DRB4*01:03 soluble heterodimer (receptor)
MHC II alpha: not shown
MHC II beta: not shown
notes: also called HLA-DRB4*01:03/DRA*01:01
On to B1, for which the binding result is on record as “binds”.
